Patent publication US20230174617A1

Experiments:
[1] = biological target: recombinant human neonatal Fc receptor (rhFcRn, R&D systems) (human) (UniProt P55899); experiment: SPR (Biacore 8K), rhFcRn amine-coupled on CM5, analyte in PBST pH 6.0, steady state affinity
[2] = biological target: recombinant human neonatal Fc receptor (rhFcRn, R&D systems) (human) (UniProt P55899); experiment: SPR, rhFcRn on CM5, analyte in PBST pH 6.0, steady state affinity

recombinant human neonatal Fc receptor (rhFcRn, R&D systems) (human), sequence (P55899 24-297 limits assumed, chain 1 of 2): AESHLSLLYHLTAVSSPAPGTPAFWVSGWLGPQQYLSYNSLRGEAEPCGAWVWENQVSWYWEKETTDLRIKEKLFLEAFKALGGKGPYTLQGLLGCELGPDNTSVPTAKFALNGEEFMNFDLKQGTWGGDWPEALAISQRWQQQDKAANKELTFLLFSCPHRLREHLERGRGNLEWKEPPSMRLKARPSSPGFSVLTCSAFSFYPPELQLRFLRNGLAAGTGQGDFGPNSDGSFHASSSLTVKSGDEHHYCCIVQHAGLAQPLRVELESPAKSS
recombinant human neonatal Fc receptor (rhFcRn, R&D systems) (human), sequence (chain, as listed by the source limits assumed, chain 2 of 2): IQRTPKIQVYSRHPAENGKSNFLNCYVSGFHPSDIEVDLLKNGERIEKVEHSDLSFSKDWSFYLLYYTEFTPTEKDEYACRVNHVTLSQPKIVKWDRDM

Row | Substance | Kd [1] | Kd [2]
1 | dulaglutide (trade name Trulicity) (Fc fusion) | 2090 nM | –
2 | Rituximab (antibody) | – | 2390 nM
